Data as given in ChEMBL document CHEMBL1671727, “Expression, purification, and characterization of Aspergillus fumigatus sterol 14-alpha demethylase (CYP51) isoenzymes A and B” (Antimicrob Agents Chemother, 2010).

Substrate: CC(C)=CCC[C@@H](C)[C@H]1CC[C@@]2(C)C3=C(CC[C@]12C)[C@@]1(C)CC[C@H](O)C(C)(C)[C@@H]1CC3
Experiment: Activity of Candida albicans CYP51

B1: Lanosterol 14-alpha demethylase (Candida albicans SC5314) (protein)
chain: MAIVETVIDGINYFLSLSVTQQISILLGVPFVYNLVWQYLYSLRKDRAPLVFYWIPWFGSAASYGQQPYEFFESCRQKYGDVFSFMLLGKIMTVYLGPKGHEFVFNAKLSDVSAEDAYKHLTTPVFGKGVIYDCPNSRLMEQKKFAKFALTTDSFKRYVPKIREEILNYFVTDESFKLKEKTHGVANVMKTQPEITIFTASRSLFGDEMRRIFDRSFAQLYSDLDKGFTPINFVFPNLPLPHYWRRDAAQKKISATYMKEIKSRRERGDIDPNRDLIDSLLIHSTYKDGVKMTDQEIANLLIGILMGGQHTSASTSAWFLLHLGEKPHLQDVIYQEVVELLKEKGGDLNDLTYEDLQKLPSVNNTIKETLRMHMPLHSIFRKVTNPLRIPETNYIVPKGHYVLVSPGYAHTSERYFDNPEDFDPTRWDTAAAKANSVSFNSSDEVDYGFGKVSKGVSSPYLPFGGGRHRCIGEQFAYVQLGTILTTFVYNLRWTIDGYKVPDPDYSSMVVLPTEPAEIIWEKRETCMF
Km: 7.4 µM
